Experimental data from patent US20240270874A1 (JIANGSU HENGRUI PHARMACEUTICALS, published 2024).

T1: human KLB on CHOK1-hKLB cells (human, UniProt Q86Z14 1-1044)
T1 construct: whole, on cells; also called human KLB antigen; β-Klotho
T1 sequence (looked up): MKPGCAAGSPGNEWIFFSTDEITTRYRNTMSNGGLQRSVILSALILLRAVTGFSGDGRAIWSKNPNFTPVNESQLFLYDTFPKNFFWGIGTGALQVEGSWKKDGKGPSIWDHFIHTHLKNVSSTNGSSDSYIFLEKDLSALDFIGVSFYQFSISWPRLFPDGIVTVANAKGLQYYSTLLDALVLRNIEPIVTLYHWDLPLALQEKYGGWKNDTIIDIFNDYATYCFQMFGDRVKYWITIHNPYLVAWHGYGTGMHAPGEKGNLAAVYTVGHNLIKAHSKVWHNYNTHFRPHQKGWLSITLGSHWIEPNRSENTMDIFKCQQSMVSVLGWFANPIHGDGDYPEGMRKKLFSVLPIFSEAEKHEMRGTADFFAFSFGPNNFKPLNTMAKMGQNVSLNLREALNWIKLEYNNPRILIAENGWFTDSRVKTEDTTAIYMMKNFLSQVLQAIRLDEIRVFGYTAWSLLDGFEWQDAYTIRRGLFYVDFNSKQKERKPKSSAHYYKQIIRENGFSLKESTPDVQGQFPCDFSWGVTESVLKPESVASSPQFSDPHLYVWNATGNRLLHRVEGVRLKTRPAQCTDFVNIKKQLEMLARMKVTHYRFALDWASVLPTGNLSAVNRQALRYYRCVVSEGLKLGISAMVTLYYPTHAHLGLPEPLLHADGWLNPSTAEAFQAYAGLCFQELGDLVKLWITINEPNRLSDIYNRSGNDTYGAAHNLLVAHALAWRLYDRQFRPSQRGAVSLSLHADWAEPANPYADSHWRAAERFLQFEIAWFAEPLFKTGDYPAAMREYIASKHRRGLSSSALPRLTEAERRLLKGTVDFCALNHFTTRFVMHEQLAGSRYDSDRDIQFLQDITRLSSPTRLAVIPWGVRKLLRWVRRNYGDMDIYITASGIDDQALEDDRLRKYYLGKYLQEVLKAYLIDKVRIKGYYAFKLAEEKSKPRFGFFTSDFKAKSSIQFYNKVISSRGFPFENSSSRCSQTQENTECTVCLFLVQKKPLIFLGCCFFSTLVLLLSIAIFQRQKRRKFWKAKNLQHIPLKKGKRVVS


Molecular target: T1, human KLB on CHOK1-hKLB cells
Test: flow cytometry on CHOK1-hKLB cells
Description: The above heavy chain variable regions were fused to the heavy chain constant region (set forth in SEQ ID NO: 22) and the light chain variable regions were fused to the light chain constant region (set forth in SEQ ID NO: 23) to construct anti-KLB antibodies, and the binding activity of the obtained antibodies for CHOK1-hKLB was detected (see Test Example 2 of the present disclosure for the experimental method).
The binding ability of the antibodies for CHOK1 cell strains CHOK1-hKLB and CHOK1-cynoKLB overexpressing human KLB and monkey KLB (see Example 1 for specific preparation procedure), respectively, was detected by flow cytometry. The specific procedure was as follows: the above cells were cultured in 10% FBS-containing IMDM medium and incubated in an incubator at 37° C. and 5% CO₂ for 2 days. The cells were then added to a cell plate at 1×10⁵ cells per well, centrifuged at 300 g for 5 min, and then washed once with 1% BSA. The antibody diluted in gradient was added to the cell plate at 100 μL per well, and the mixture was incubated at 4° C. for 1 h and washed once with 1% BSA. The diluted (1:400) APC-goat anti-human IgG Fc fluorescent secondary antibody was added at 100 μL per well, and the resulting mixture was incubated at 4° C. for 1 h. The plate was washed three times with 1% BSA, PBS was added at 100 μL per well, and the plate was read.

Binder	EC50 [nM]
hAb99-6 (antibody, human IgG1, kappa, L234A L235A, humanized mAb-99: hAb99VH2 + hAb99VL2; human IgG1 (L234A, L235A) / kappa constant regions) heavy: not shown light: DIQMTQSPSSLSASVGDRVTITCRASKSISKFLAWFQQKPGKTNKLLIYSGSTLQSGVPSRFSGSGSGTDFTLTISSLQPEDFATYYCQQHNEYPWTFGGGTKVEIKRTVAAPSVFIFPPSDEQLKSGTASVVCLLNNFYPREAKVQWKVDNALQSGNSQESVTEQDSKDSTYSLSSTLTLSKADYEKHKVYACEVTHQGLSSPVTKSFNRGEC	0.41
hAb99-1 (antibody, human IgG1, kappa, L234A L235A, V domains shown, humanized mAb-99: hAb99VH1 + hAb99VL1; human IgG1 (L234A, L235A) / kappa constant regions) VH: EVQLVQSGAEVKKPGASVKVSCKASGYTFTNYGINWVRQAPGQRLEWMGYIYIGNGDIEYNAKFKGRVTITSDTSASTAYMELSSLRSEDTAVYYCARGRGLGHFDVWGQGTTVTVSS VL: DIQMTQSPSSLSASVGDRVTITCRASKSISKFLAWYQQKPGKANKLLIYSGSTLQSGVPSRFSGSGSGTDFTLTISSLQPEDFATYYCQQHNEYPWTFGGGTKVEIKR	0.61
hAb99-2 (antibody, human IgG1, kappa, L234A L235A, humanized mAb-99: hAb99VH1 + hAb99VL2; human IgG1 (L234A, L235A) / kappa constant regions) heavy: not shown light: DIQMTQSPSSLSASVGDRVTITCRASKSISKFLAWFQQKPGKTNKLLIYSGSTLQSGVPSRFSGSGSGTDFTLTISSLQPEDFATYYCQQHNEYPWTFGGGTKVEIKRTVAAPSVFIFPPSDEQLKSGTASVVCLLNNFYPREAKVQWKVDNALQSGNSQESVTEQDSKDSTYSLSSTLTLSKADYEKHKVYACEVTHQGLSSPVTKSFNRGEC	0.35
hAb99-4 (antibody, human IgG1, kappa, L234A L235A, V domains shown, humanized mAb-99: hAb99VH1 + hAb99VL4; human IgG1 (L234A, L235A) / kappa constant regions) VH: EVQLVQSGAEVKKPGASVKVSCKASGYTFTNYGINWVRQAPGQRLEWMGYIYIGNGDIEYNAKFKGRVTITSDTSASTAYMELSSLRSEDTAVYYCARGRGLGHFDVWGQGTTVTVSS VL: DVQITQSPSSLSASVGDRVTITCRASKSISKFLAWFQEKPGKTNKLLIYSGSTLQSGIPSRFSGSGSGTDFTLTISSLQPEDFATYYCQQHNEYPWTFGGGTKVEIKR	0.37
hAb99-7 (antibody, human IgG1, kappa, L234A L235A, humanized mAb-99: hAb99VH2 + hAb99VL3; human IgG1 (L234A, L235A) / kappa constant regions) heavy: not shown light: DVQITQSPSSLSASVGDRVTITCRASKSISKFLAWFQQKPGKTNKLLIYSGSTLQSGVPSRFSGSGSGTDFTLTISSLQPEDFATYYCQQHNEYPWTFGGGTKVEIKRTVAAPSVFIFPPSDEQLKSGTASVVCLLNNFYPREAKVQWKVDNALQSGNSQESVTEQDSKDSTYSLSSTLTLSKADYEKHKVYACEVTHQGLSSPVTKSFNRGEC	0.35
hAb99-8 (antibody, human IgG1, kappa, L234A L235A, V domains shown, humanized mAb-99: hAb99VH2 + hAb99VL4; human IgG1 (L234A, L235A) / kappa constant regions) VH: EVQLVQSGAEVKKPGASVKVSCKASGYTFTNYGINWVRQAPGQGLEWMGYIYIGNGDIEYNAKFKGRVTITSDTSASTAYMELSSLRSEDTAVYYCARGRGLGHFDVWGQGTTVTVSS VL: DVQITQSPSSLSASVGDRVTITCRASKSISKFLAWFQEKPGKTNKLLIYSGSTLQSGIPSRFSGSGSGTDFTLTISSLQPEDFATYYCQQHNEYPWTFGGGTKVEIKR	0.39
hAb99-10 (antibody, human IgG1, kappa, L234A L235A, humanized mAb-99: hAb99VH3 + hAb99VL2; human IgG1 (L234A, L235A) / kappa constant regions) heavy: not shown light: DIQMTQSPSSLSASVGDRVTITCRASKSISKFLAWFQQKPGKTNKLLIYSGSTLQSGVPSRFSGSGSGTDFTLTISSLQPEDFATYYCQQHNEYPWTFGGGTKVEIKRTVAAPSVFIFPPSDEQLKSGTASVVCLLNNFYPREAKVQWKVDNALQSGNSQESVTEQDSKDSTYSLSSTLTLSKADYEKHKVYACEVTHQGLSSPVTKSFNRGEC	0.36
hAb99-14 (antibody, human IgG1, kappa, L234A L235A, V domains shown, humanized mAb-99: hAb99VH1-NL + hAb99VL2; human IgG1 (L234A, L235A) / kappa constant regions) VH: EVQLVQSGAEVKKPGASVKVSCKASGYTFTNYGINWVRQAPGQRLEWMGYIYIGNLDIEYNAKFKGRVTITSDTSASTAYMELSSLRSEDTAVYYCARGRGLGHFDVWGQGTTVTVSS VL: DIQMTQSPSSLSASVGDRVTITCRASKSISKFLAWFQQKPGKTNKLLIYSGSTLQSGVPSRFSGSGSGTDFTLTISSLQPEDFATYYCQQHNEYPWTFGGGTKVEIKR	0.6
hAb99-15 (antibody, human IgG1, kappa, L234A L235A, V domains shown, humanized mAb-99: hAb99VH1-QG + hAb99VL2; human IgG1 (L234A, L235A) / kappa constant regions) VH: EVQLVQSGAEVKKPGASVKVSCKASGYTFTNYGINWVRQAPGQRLEWMGYIYIGQGDIEYNAKFKGRVTITSDTSASTAYMELSSLRSEDTAVYYCARGRGLGHFDVWGQGTTVTVSS VL: DIQMTQSPSSLSASVGDRVTITCRASKSISKFLAWFQQKPGKTNKLLIYSGSTLQSGVPSRFSGSGSGTDFTLTISSLQPEDFATYYCQQHNEYPWTFGGGTKVEIKR	0.41
hAb99-16 (antibody, human IgG1, kappa, L234A L235A, V domains shown, humanized mAb-99: hAb99VH2-NV + hAb99VL2; human IgG1 (L234A, L235A) / kappa constant regions) VH: EVQLVQSGAEVKKPGASVKVSCKASGYTFTNYGINWVRQAPGQGLEWMGYIYIGNVDIEYNAKFKGRVTITSDTSASTAYMELSSLRSEDTAVYYCARGRGLGHFDVWGQGTTVTVSS VL: DIQMTQSPSSLSASVGDRVTITCRASKSISKFLAWFQQKPGKTNKLLIYSGSTLQSGVPSRFSGSGSGTDFTLTISSLQPEDFATYYCQQHNEYPWTFGGGTKVEIKR	0.47

More lines, now with the values ahead:

EC50 [nM]	Binder
0.35	hAb99-3 (antibody, human IgG1, kappa, L234A L235A, humanized mAb-99: hAb99VH1 + hAb99VL3; human IgG1 (L234A, L235A) / kappa constant regions) heavy: not shown light: DVQITQSPSSLSASVGDRVTITCRASKSISKFLAWFQQKPGKTNKLLIYSGSTLQSGVPSRFSGSGSGTDFTLTISSLQPEDFATYYCQQHNEYPWTFGGGTKVEIKRTVAAPSVFIFPPSDEQLKSGTASVVCLLNNFYPREAKVQWKVDNALQSGNSQESVTEQDSKDSTYSLSSTLTLSKADYEKHKVYACEVTHQGLSSPVTKSFNRGEC
0.5	hAb99-5 (antibody, human IgG1, kappa, L234A L235A, V domains shown, humanized mAb-99: hAb99VH2 + hAb99VL1; human IgG1 (L234A, L235A) / kappa constant regions) VH: EVQLVQSGAEVKKPGASVKVSCKASGYTFTNYGINWVRQAPGQGLEWMGYIYIGNGDIEYNAKFKGRVTITSDTSASTAYMELSSLRSEDTAVYYCARGRGLGHFDVWGQGTTVTVSS VL: DIQMTQSPSSLSASVGDRVTITCRASKSISKFLAWYQQKPGKANKLLIYSGSTLQSGVPSRFSGSGSGTDFTLTISSLQPEDFATYYCQQHNEYPWTFGGGTKVEIKR
0.47	hAb99-9 (antibody, human IgG1, kappa, L234A L235A, V domains shown, humanized mAb-99: hAb99VH3 + hAb99VL1; human IgG1 (L234A, L235A) / kappa constant regions) VH: EVQLVQSGAEVKKPGASVKVSCKTSGYTFTNYGINWVRQAPGQGLEWMGYIYIGNGDIEYNAKFKGRVTITSDTSASTAYMELSSLRSEDTAVYFCARGRGLGHFDVWGQGTTVTVSS VL: DIQMTQSPSSLSASVGDRVTITCRASKSISKFLAWYQQKPGKANKLLIYSGSTLQSGVPSRFSGSGSGTDFTLTISSLQPEDFATYYCQQHNEYPWTFGGGTKVEIKR
0.33	hAb99-11 (antibody, human IgG1, kappa, L234A L235A, humanized mAb-99: hAb99VH3 + hAb99VL3; human IgG1 (L234A, L235A) / kappa constant regions) heavy: not shown light: DVQITQSPSSLSASVGDRVTITCRASKSISKFLAWFQQKPGKTNKLLIYSGSTLQSGVPSRFSGSGSGTDFTLTISSLQPEDFATYYCQQHNEYPWTFGGGTKVEIKRTVAAPSVFIFPPSDEQLKSGTASVVCLLNNFYPREAKVQWKVDNALQSGNSQESVTEQDSKDSTYSLSSTLTLSKADYEKHKVYACEVTHQGLSSPVTKSFNRGEC
0.33	hAb99-12 (antibody, human IgG1, kappa, L234A L235A, V domains shown, humanized mAb-99: hAb99VH3 + hAb99VL4; human IgG1 (L234A, L235A) / kappa constant regions) VH: EVQLVQSGAEVKKPGASVKVSCKTSGYTFTNYGINWVRQAPGQGLEWMGYIYIGNGDIEYNAKFKGRVTITSDTSASTAYMELSSLRSEDTAVYFCARGRGLGHFDVWGQGTTVTVSS VL: DVQITQSPSSLSASVGDRVTITCRASKSISKFLAWFQEKPGKTNKLLIYSGSTLQSGIPSRFSGSGSGTDFTLTISSLQPEDFATYYCQQHNEYPWTFGGGTKVEIKR
0.43	hAb99-17 (antibody, human IgG1, kappa, L234A L235A, V domains shown, humanized mAb-99: hAb99VH2-NL + hAb99VL2; human IgG1 (L234A, L235A) / kappa constant regions) VH: EVQLVQSGAEVKKPGASVKVSCKASGYTFTNYGINWVRQAPGQGLEWMGYIYIGNLDIEYNAKFKGRVTITSDTSASTAYMELSSLRSEDTAVYYCARGRGLGHFDVWGQGTTVTVSS VL: DIQMTQSPSSLSASVGDRVTITCRASKSISKFLAWFQQKPGKTNKLLIYSGSTLQSGVPSRFSGSGSGTDFTLTISSLQPEDFATYYCQQHNEYPWTFGGGTKVEIKR
